Experimental data as given in paper PMC9138545, “Incorporation of Oxidized Phenylalanine Derivatives into Insulin Signaling Relevant Proteins May Link Oxidative Stress to Signaling Conditions Underlying Chronic Insulin Resistance” (Biomedicines, 2022).
pKd: −log10 of the molar value.

Assays:
[1] = biological target: N-terminal SH2 domain of PI3K regulatory subunit 1 (UniProt P27986); assay: FP
[2] = biological target: C-terminal SH2 domain of PI3K regulatory subunit 1 (UniProt P27986); assay: FP
Chain of C-terminal SH2 domain of PI3K regulatory subunit 1 (P27986 614-724): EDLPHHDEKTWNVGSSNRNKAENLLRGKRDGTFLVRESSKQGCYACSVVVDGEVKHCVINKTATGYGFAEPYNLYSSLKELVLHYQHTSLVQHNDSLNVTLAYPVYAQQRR

Chain of N-terminal SH2 domain of PI3K regulatory subunit 1 (P27986 321-433): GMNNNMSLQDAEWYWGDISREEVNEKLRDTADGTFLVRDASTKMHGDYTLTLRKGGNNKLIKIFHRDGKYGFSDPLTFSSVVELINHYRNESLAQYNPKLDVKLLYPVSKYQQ

Substance	pKd [1]	pKd [2]
phospho-meta-Tyr IRS-1 peptide GRKGSGD(pY)MPMSPKV	4.27	5.19
phospho-ortho-Tyr IRS-1 peptide GRKGSGD(pY)MPMSPKV	< 3.82	< 4.40
